Results taken from article PMC12905498 (Biochemical Journal, 2026).

B1: Plasmodium falciparum HAP2 domain 3 (PfHAP2 D3 HisAvi), deglycosylated (domain or fragment)
chain: VSYGTITHITIPKDCSSNQTNSKECILVVHTWNNNKTIGANFSCHVLCVDKSTQQVATHISPISKINAHIDANKNYAFYFIIKFLINKKITSNCTAILKDADGRECSKLSFNLTSKETIN
B2: anti-PbHAP2 D3 mAb 6.14 (variable regions in AbVec-hIgG1 and AbVec-IgKappa) (antibody, V domains shown)
VH: EVQLVESGGGLVKPGGSLKLSCAASEFTFSDYGMHWVRQAPEKGLEWVASISSGSNSIYYSDTVKGRFTISRDNAKSILFLQMTSLRSEDTAMYYCSREAYFAMDYWGQGTSVTVSS
VL: DIQMTQSPSSLSAILGGKVTITCKASQDIHKYIAWYQHKPGKGPRLLIYYTSTLQPGIPSRFSGSGSGRDYSFSISNLEPEDVATYFCLQYDNLYTFGGGTKVEIE
notes: also called anti-PbHAP2 mAb 6.14; source: Expi293 cells, transient transfection (1:1 light and heavy chain plasmids), purified as the nanobody-Fcs (HiTrap PrismA)
B3: Plasmodium berghei HAP2 domain 3 (domain or fragment)
chain: VSIATITHVTIPNDCASNNSNSNECVLIIHVWNNSKFVGSNFSCSIACTNKETDQLASHINPIAPVRAFIGPNKNYAFYFIIKFLINKEITTLCKAIVKDSNGKECSIEEFELQSKESVH
notes: source: Sf21 cells (baculovirus), purified as PfHAP2 D3 (Ni-NTA, SEC)
B4: Pfs48/45 Domain 3 (domain or fragment)
chain: KVIHGCNFSSNVSSKHTFTDSLDISLVDDSAHISCNVHLSEPKYNHLVGLNCPGDIIPDCFFQVYQPESEELEPSNIVYLDSQINIGDIEYYEDAEGDDKIKLFGIVGSIPKTTSFTCICKKDKKSAYMTVTIDSA
notes: as for B3
B5: Plasmodium vivax HAP2 domain 3 (domain or fragment)
chain: VSTATITHITTPKNCSSNQSESKDCVLIVHTWNNSANVGSNFSCHVICTDKETGKIATHIGPISPVNAFIDANKNYAFYFIIKFLINKEIKTMCKAVLRDSNGKECSKEDFLLTSKE
notes: as for B3

Tests used:
Details in all cases: both partners purified
[1] = target: T1, WNbFc 333 (nanobody WNb 333 fused to hinge and Fc of human IgG1) (alpaca); experiment: BLI; affinity: nanobody-Fcs or antibodies (5 µg/ml) loaded on anti-human IgG Fc Capture (AHC) tips, two-fold dilution series of antigen; PBS pH 7.4, 0.1% BSA, 0.05% TWEEN-20, 25°C; 1:1 Langmuir model; mean of two experiments
T1 construct: also called WNb 333 nanobody-Fc; source: Expi293 cells, transient transfection, purified (HiTrap PrismA)

[2] = target: T2, WNbFc 334 (nanobody WNb 334 fused to hinge and Fc of human IgG1) (alpaca); experiment: as above
T2 construct: also called WNb 334 nanobody-Fc; source: Expi293 cells, transient transfection, purified (HiTrap PrismA)

[3] = target: T3, WNbFc 335 (nanobody WNb 335 fused to hinge and Fc of human IgG1) (alpaca); experiment: as above
T3 construct: also called WNb 335 nanobody-Fc; source: Expi293 cells, transient transfection, purified (HiTrap PrismA)

[4] = target: B1; experiment: as above
[5] = target: T1, WNbFc 333 (nanobody WNb 333 fused to …); experiment: BLI
[6] = target: T1, WNbFc 333 (nanobody WNb 333 fused to …); experiment: ELISA
[7] = target: T2, WNbFc 334 (nanobody WNb 334 fused to …); experiment: ELISA
[8] = target: T3, WNbFc 335 (nanobody WNb 335 fused to …); experiment: ELISA

**Q.** Which results are given for B1?
**A.** Kd [1]: 15.8 nM; Kd [2]: 26.1 nM; Kd [3]: 50.8 nM

**Q.** Does B2 bind [4]?
**A.** Result: no binding

**Q.** What does the source list for B3?
**A.** binding result [5]: binds; binding result [2]: binds

**Q.** Does B4 bind [6]?
**A.** Result: no binding (tested: 125 nM)

**Q.** Does B4 bind [7]?
**A.** Result: no binding (tested: 125 nM)

**Q.** Does B4 bind [8]?
**A.** Result: no binding (tested: 125 nM)

**Q.** Does B5 bind [5]?
**A.** Result: binds
